Test results from the nanobody polyreactivity screen of Harvey et al. (2022).

Assay: yeast display, Sf9 membrane polyspecificity reagent, FACS + sequencing; frameworks hold sequencing errors
Method in brief: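 Galactose induction of a Saccharomyces cerevisiae BJ5465 synthetic nanobody display library ran 36–48 hours. The cells were then stained for 1 hour at 4 °C with 10% biotinylated, detergent-solubilized Sf9 membrane reagent, pulled down on streptavidin microbeads and FACS-sorted into low and high (top ~1%) gates on expression and reagent-binding fluorescence. Labels for polyreactivity follow the gate of origin.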

| Sequence | polyreactivity (PSR sort gate) |
| --- | --- |
| QEQLQERGGGLVQAGGSLRLSCAASGSIFKVVDMGLYRQAPAKEREFVATIGEGGNTYYADSVKGRFTISRDNAKNTVYLQMNSLKPEDTAVYFYAVVLGTYYRYTYWGQGTQVTVSS | low polyreactivity |
| QVQLVESGGGLVQAGGSLRLSCAASGRTFRNNAMGWYRQAPGKEREFVAVISNTGGSTYYADSVKGRFTISRDNAKNTVYLQMNSLKPEDTAVYYCAVRPRYSQYYYWGQGTQVTVSS | high polyreactivity |
| QVQLVESGGGLVQAGGSLRLSCAASGFTFKINGMGWYRQATGKEREFVATIRTSTGRTNYADSVKGRFTISRDNAKNTVYLQMNSLKPEDTAVYYCAATFKSGMDYWGQGTQVTVSS | high polyreactivity |
| QVQLVESGGGLVQAGGSLRLSCAASGIIFQQYAMGWYRQAPGKERELVAAITYSGDGTYYADSVKGRFTISRDNAKNTVYLQMNSLKPEDTAVYYCAAYPRDPYKEYDYWGQGTQVTVSS | low polyreactivity |
| QVQLVDSGGGLVQAGGSLRLTCAASGIIFRLYGMGWYRQAPGKEREFVATITWRGGRTNYADSVKGRFTISRDNAKNTVYLQMNSLKPEDTAVYYCAKVVRYARSNEYDSWGQGTQVTVSS | low polyreactivity |
| QVQLVESGGGLVQAGGSLRLSCAASGRILEVYAMGWYRQAPGKERELVAAIRWSDGNTYYADSVKGRFTISRDNAKNTVYLQMNSLKPEDTAVYYCAARTPGGYDWGQGTQVTVSS | high polyreactivity |
| QVQLVESGGGLVQAGGSLRLSCAASGFTFYGNAMGWYRQAPGKERELVASISTYYADSVKGRFTISRDNAKNTVYLQMNSLKPEDTAVYYCAATHYDRTFYVIYDYWGQGTQVTVSS | low polyreactivity |
| QVQLVESGGGLVQAGGSLRLSCAASGFIFLGYAMGWYRQAPGNERELVAAISESSGTTSYADSVKGRFTISRDNAKNTVYLQMNSLKPEDNAVYYCAADSIGNYLLYDYWGQCTQVTVSS | low polyreactivity |
| QVQLVESVVGLVQAGGSLRLSCAASGSTFYTYAMGWYRQAPGKERELVAAISYRGGSTYYADSVKGRFTISRDNAKNTVDLQMNSLKPEDTAVFYCNVDGVVVGNKRGGYDYWGQGTQVTVSS | low polyreactivity |
| QVQLVESGGGLVQAGGSLRLSCAASGFIFKQNARGWYRQAPGKERELVAAISWTGGSTYYADSVQGRFTISRDNAKNTVYLQMNSLKPEDTAVFYCAARKYKSTGDRRGTMDYWGQGTQVTVSS | high polyreactivity |
| QVQLVESGGGLVQAGGSLRLSCAASGFIFVTNAMGWYRQAPGKERELVAAINWSGGRTYYADSVKGRFTISRDNAKNTVYLQMNSLKPEDTAVYYCAADPYARLGEYGYCGQGTQVTVSS | low polyreactivity |
| QVQLVESGGGLDQAGGSLRLSCAASGSTFQVNVMAWYRQAPGKEREFVAGISYSGGSTYYADSVKGRFTISRDNAKNTVYLQMNSLKPEDTAVYYCAAEEDYNIAGSWTYTYDYWGQGTQVTVSS | low polyreactivity |
| QVQLVESGGGLVQAGGSLRLTCAASGSIFRVYAMGWYRQAPGKERELVAVISIAGRTNYADSVKGRFTISRDNAKNTVYLQMNSLKAEDTAVYYCNAGGVGVATGYDYWGQGTQVTVSS | low polyreactivity |
| QVQLVESGGGLVQAGGSLRLSCAASGRIFSEYAMGWYRQAPGKERELVAAISGTGGRTYYADSVKGRFTISRDNAKNTVYLQMNSLKPEDTAVYYCAARTGQGPLYNHWGQGTQVTVSS | high polyreactivity |
| QVQLVESGGGLVQAGGSLRLSCAASGSIFRRNAMGWYRQAPGKERELVAGISGGGSTYYADSVKGRFTISRDNAKNTVYLQMNSLKPEDTAVYFCATDKHFRWAGFDYWGQGTQVTVSS | low polyreactivity |
| QVQLVESGGGLVQAGGSLRLSCAASGRIFANYAMGWYRQAPGKERELVAAISRSGGSTSYADSVKGRFTISRDNAKNTVYLQMNSLKPEDTAVYYCAATRSRYQPVKYGYWGQGTQVTVSS | high polyreactivity |
| QVQLVESGGGLVQAGGSLRLSCAASGIIFKTYAMGWYRQAPGKERELVAGIDYSGGGTSYADSVKGRFTISRDNAKNTVYLQMNSLKPEDTAVYYCAADAYSGAYFTYLGEIYDYWGQGTQVTVSS | low polyreactivity |
| QVQLVESGGGLVQAGGSLRLSCAASGSTFKRNAMGWSRQAPGKEWELVAAITFSGATTYYADSVKGRFTISRDNAKNTVYLQMNSLKPEDTAVYYCATKAYTTGRYYWGQGTQVTVSS | high polyreactivity |
| QVQLVESGGGLVQAGGSLRLSCAASGSTVNKYAMGWYRHAPGKERELVAAITTSGGRTYYADSVKGRFTISRDNAKNTVYLQMNSLKPEDTAVYYCNARIRRNYAYPKGESWGQGTQVTVSS | high polyreactivity |
| QDQLVESGGGLVQAGGSLRLSCAASGFIFGTYAMGWYRQAPGKEREFVAAINWGGGRTYYADSVKGRFTISRDNAKNTVYLQMNSLKPEDTAVYYCAADFGLYYPRYGYWGQGTQVTVSS | high polyreactivity |
| QVQLVESGGGLVQAGGSLRLSCAASGSIIYPYVMGWYRQAPGKERELVAAISASGGSTYYADSMKGRFTISRDNAKNTVYLQMNSLKPEDTGVYYCAKYYRFRDDYDYWGQGTQVTVSS | high polyreactivity |
| QVQLVESVGGLVQAGGSLRLSCDASGRIFVKYAMGGSRQAPGKERELVASITSGGRTNYADSVKGRFTISRDNAKNTVYLQMNSLKPEDTAVYYCAADARQSRYNYWGQGTQVTVSS | high polyreactivity |

| Sequence | polyreactivity (PSR sort gate) |
| --- | --- |
| QVQLVESGGGLVQAGGSLRLICAASGSTFNGYVMGWYRKAPGKERELVAAISRSGGSTYYADSVKGRFTNSRDNAKNTVYLQMNSLKPEDTAVYDCAAAPPLAGLGGYYWGQGTQVTVSS | high polyreactivity |
| QVQLVESGGGLVQAGGSLRLSCAASGRMFHIYAMGWYRQAPGKERELVAGITTSGGSTYYADSVKGRFTISRDNAKNTVYLQMNSLKPEDTSVDYCARDGLWWCGLTKRWWEFYYWGQGTQVTVSS | low polyreactivity |
| QVQLVESGGGLVQAGGSLRLSCAASGSIFLYYTMGWYRQAPGKEREMVAAITSGSSTNYADSVKGRFTISRDNAKNTVYLQMNSLKPEDTAVYYCATQYTLSYPSIDFDYWGQGTQVNVSS | low polyreactivity |
| QVQLVESGGGLVQAGGSLRLSCAASGFIFADYAMGWYRQAPGKERELVAAITRGGITYYADSVKGRFTISRDNAKNTVYLQMNSLKPEDTAVYYCAVDPSPRSYYNYYWGQGTQVTVSS | high polyreactivity |
| QVQLVESGGGLVQAGGSLRLSCAASGITFYGYAMGWYRQEPGKERELVATISSGGGTNYADSVKGRFTISRDNAKNTVYLQMNSLKPEDTAVYYCATDLSTVDYNYWGQGTQVTVSS | low polyreactivity |
| QVQLVESGGGLVQAGGSLRLSCAASGYIFTRNAMGWYRQAPGKDRELVAAISQGGGSTYYADSVKGRFTISRDNAKNTVYFQMNSLKPEDTAVYYCAAYFYTFVGYDYWGQGTQVTVSS | low polyreactivity |
| QVQLVESGGGLVQSGGSLRLSCAASGITFYVYTMGWYRQAPGKERELVAAINGSGGSTNYADSVKGRFTISRDNAKNTVHLQMNSLKPEDTAVYYCAADWSLRLYDYWGQGTQVTVSS | low polyreactivity |
| QVQLVESGGGLVQAGGSLRLSFAASGFTFYYYTMGWYRQEPGKERELVAGISRRRGSTRYADSVKGRFTISRDNAKNTVYLQMNSLKPEDTAVYYCAAYPVVTEFDYWGQGTQVTVSS | high polyreactivity |
| QVQLVESRGGLVQAGGSLRLTCAAYGRIFLVYDMGWYRHAPGKERELVAAISWSTGSTYYADSVKGRFTISRDNAKNTFYFQINSLITEDTAVYYCAAEPELDDYEHDYWGQGTQLTVSS | low polyreactivity |
| QVQLVESGGVLVQAGGSLRLSCAASGIIFFYNAMGWYRQAPGKERELVAAISARGGRTYYADSVKGRFTISRDNAKNTVYLQMNSLKPEDTAVYYCNAYRYGWEDMDYWGQGTQVTVSS | high polyreactivity |
| QVQLRESGCGLVQAGGNLRLSCAASGNIFDADIMGWYRQAPGKERELVASITDGGSTYYADSVRCRFTISRDNAKNTVYLQMNSLKPEDTAVYYCTAIAYPDIPTYFDHDSDYFYWGQGTQVTVSS | high polyreactivity |
| QVQLVESGGGLVQAGGSLRLSCAASGGTFGAYAMGWYRPAPGKERELVAAISGSGARTYYADSVKGRFTISRDNAKNTVYLQMNSLKPEDTAVYYCAARSTGTRVGEYDYWGQGTQVTVSS | high polyreactivity |
| QVQLVESGGGLVQAGGSLRLSCAASGPTFDYNAMGCYRPAPGKERELVAAIRFGGGSTYYADSVKGRFTISRDNAKNTVYFQINSLKPEDTAVYYCNASPLWIGWVIVPVGSSHYDYWGQGTQVTVSS | low polyreactivity |
| QVQLVESGGGLVQAGGSLRLSCAASGRILYPYAMGWYRQAPGKERELVAAITFIGGTTYYADSVKGRFTLSRDNAKNTLYLQRNSLKQEDTAVYYCSTAGPYGSRNDYWGQGTQVTVSS | high polyreactivity |
| QVQLVESGGGIVQAGGSLRLSCAASGSIFWVNVMGWYRQAPGKEREFVAAITRSGGSTYYADSVKGRFTISRDNAKNTVYLQMKSLKPEDTAVYYCNRRGRRGYDYWGQGTQVTVSS | high polyreactivity |
| QVQLVESGGGLVQAGGSLRLSCAASGRIFPTNAMGWYRQPPGKEREFVAAITWRGGSTYYADSVKGRFTISRDNAKNTVYLQMNSLKPEDTAVYYCAAELDYFPGYDYWGQGTQVTLSS | low polyreactivity |
| QVQLIESGGGLVQAGGSLRLSCAASGRTFKRYAMGWYRQAPGKERELVARITYSGARTYYADSVKGRFTISRDNAKNTVYLQMNSLKPEDTAVYYCAAQQYWTSQYFRSATFDYWGQGTQVTVSS | high polyreactivity |
| QVQLVESGGGLVQAGGSLRLSCAASGSTFSVYAMGWYRQAPGKERELVASISSSVGRTFYADSVKGRFTISRDNAKNTVYLQMNSLKPEDTAVYYCAARSYQVKEYDHWGQGTQVTVSS | high polyreactivity |
| QVQLVESGGGLVQAVGSLRLSCAASVIIFDVNAMGWYRQAPAKERELVATISKRGGTTYYADSVKGRFTISRDNAKNTVYLQMYSLKPEDTAVYYCAARHQTLRSYRYDYWGQGTQVTVSS | low polyreactivity |
| QVQLVESGGGLVQAGGSLSLSCAASGITFSYYAMGWYRQAPGNERELVASINFSGGSTSYADSVKGRFTISRDNAKITVYFQMNSLKPEDPAVYYCAAQIWSKDEKHDYWGQGTKVTVSS | high polyreactivity |
| PVQLVDSGGGLVQAGGSLRLSCAASGSIFYRNALGWYRQAPGKERELVAAISGRGGSTNYADSVKGRFTISRDNAKNTVYLQMNSLKPEDTAVYYCNRYGVANILVRGGYWGQGTQVTVSA | high polyreactivity |
